Reference: publication PMC4839565, “Evolution of Telomeres in Schizosaccharomyces pombe and Its Possible Relationship to the Diversification of Telomere Binding Proteins”

T1: Taz1p (6HN-Taz1) (Schizosaccharomyces pombe, UniProt P79005 2-663)
T1 sequence: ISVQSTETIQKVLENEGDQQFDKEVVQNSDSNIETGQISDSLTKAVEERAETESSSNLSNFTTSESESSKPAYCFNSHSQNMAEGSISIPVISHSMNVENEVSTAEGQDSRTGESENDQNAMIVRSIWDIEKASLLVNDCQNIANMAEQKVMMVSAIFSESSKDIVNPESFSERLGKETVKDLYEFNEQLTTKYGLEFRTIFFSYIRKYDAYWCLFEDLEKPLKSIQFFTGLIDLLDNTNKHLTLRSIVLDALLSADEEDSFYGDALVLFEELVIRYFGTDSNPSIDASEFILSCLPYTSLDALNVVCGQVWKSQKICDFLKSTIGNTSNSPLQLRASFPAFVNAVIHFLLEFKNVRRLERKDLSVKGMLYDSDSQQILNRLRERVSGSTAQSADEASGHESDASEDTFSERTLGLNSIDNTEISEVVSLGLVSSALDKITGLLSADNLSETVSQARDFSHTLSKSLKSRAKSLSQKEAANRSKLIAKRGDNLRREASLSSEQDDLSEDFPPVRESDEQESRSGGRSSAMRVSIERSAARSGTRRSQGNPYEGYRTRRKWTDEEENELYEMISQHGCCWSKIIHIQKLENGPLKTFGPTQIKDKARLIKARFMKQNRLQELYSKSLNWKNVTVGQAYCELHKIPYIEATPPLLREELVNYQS

T2: Teb1p (6HN-Teb1) (Schizosaccharomyces pombe, UniProt Q10274 2-390)
T2 sequence: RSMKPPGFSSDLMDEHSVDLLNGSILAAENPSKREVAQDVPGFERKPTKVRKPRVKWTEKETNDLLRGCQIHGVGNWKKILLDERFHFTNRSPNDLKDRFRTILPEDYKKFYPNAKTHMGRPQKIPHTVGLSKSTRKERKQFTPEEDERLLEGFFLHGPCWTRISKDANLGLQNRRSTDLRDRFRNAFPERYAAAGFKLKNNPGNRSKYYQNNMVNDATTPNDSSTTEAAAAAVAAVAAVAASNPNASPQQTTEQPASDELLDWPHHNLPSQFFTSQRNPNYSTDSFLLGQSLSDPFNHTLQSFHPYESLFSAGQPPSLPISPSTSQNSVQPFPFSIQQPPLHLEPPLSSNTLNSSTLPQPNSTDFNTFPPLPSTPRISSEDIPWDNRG


How the values were obtained:
Taz1p (6HN-Taz1) = target: T1, Taz1p (6HN-Taz1); assay: fluorescence anisotropy; HNED, 0.1 mM DTT, 25 C; HNE: 20 mM HEPES-NaOH pH 7.5, 1 mM EDTA, 100 mM NaCl (Teb1); HNED = HNE + 0.1 mM DTT (Taz1). FA: 2 nM DNA, 25 C (Teb1/SpTEL 37 C). EMSA: 15 nM DNA, 0.05-4.5 uM; details: protein: recombinant; tags: N-terminal 6HN; chain copies: 2; EMSA: 5'-32P on strand A; blunt
Teb1p (6HN-Teb1) [1] = target: T2, Teb1p (6HN-Teb1); assay: fluorescence anisotropy; HNE, no DTT, 37 C; HNE: 20 mM HEPES-NaOH pH 7.5, 1 mM EDTA, 100 mM NaCl (Teb1); HNED = HNE + 0.1 mM DTT (Taz1). FA: 2 nM DNA, 25 C (Teb1/SpTEL 37 C). EMSA: 15 nM DNA, 0.05-4.5 uM; details: protein: recombinant; tags: N-terminal 6HN; C-terminal GST removed with PreScission protease (residual site residues); EMSA: 5'-32P on strand A; blunt
Teb1p (6HN-Teb1) [2] = target: T2, Teb1p (6HN-Teb1); assay: fluorescence anisotropy; HNE, no DTT, 25 C; HNE: 20 mM HEPES-NaOH pH 7.5, 1 mM EDTA, 100 mM NaCl (Teb1); HNED = HNE + 0.1 mM DTT (Taz1). FA: 2 nM DNA, 25 C (Teb1/SpTEL 37 C). EMSA: 15 nM DNA, 0.05-4.5 uM; details: protein: recombinant; tags: N-terminal 6HN; C-terminal GST removed with PreScission protease (residual site residues); EMSA: 5'-32P on strand A; blunt
Teb1p (6HN-Teb1) [3] = target: T2, Teb1p (6HN-Teb1); assay: EMSA; no DTT; HNE: 20 mM HEPES-NaOH pH 7.5, 1 mM EDTA, 100 mM NaCl (Teb1); HNED = HNE + 0.1 mM DTT (Taz1). FA: 2 nM DNA, 25 C (Teb1/SpTEL 37 C). EMSA: 15 nM DNA, 0.05-4.5 uM; details: protein: recombinant; tags: N-terminal 6HN; C-terminal GST removed with PreScission protease (residual site residues); label: 5'-32P on strand A; blunt
Teb1p (6HN-Teb1) [4] = target: T2, Teb1p (6HN-Teb1); assay: EMSA; no DTT; almost complete restoration; HNE: 20 mM HEPES-NaOH pH 7.5, 1 mM EDTA, 100 mM NaCl (Teb1); HNED = HNE + 0.1 mM DTT (Taz1). FA: 2 nM DNA, 25 C (Teb1/SpTEL 37 C). EMSA: 15 nM DNA, 0.05-4.5 uM; details: protein: recombinant; tags: N-terminal 6HN; C-terminal GST removed with PreScission protease (residual site residues); label: 5'-32P on strand A; blunt

Binder	Kd (Taz1p (6HN-Taz1)) [nM]	Kd (Teb1p (6HN-Teb1) [2]) [nM]	other results
SpTEL (dsDNA) DNA 1: TTACAGGGGGTTACAGGG DNA 2: CCCTGTAACCCCCTGTAA	115 ± 9		Kd (Teb1p (6HN-Teb1) [1]): 380 ± 30 nM
HsTEL (dsDNA) DNA 1: GTTAGGGTTAGGGTTAG DNA 2: CTAACCCTAACCCTAAC	54 ± 5	31 ± 5	
HisBoxMut (dsDNA) DNA 1: AGGGTGTGAGTTGTGAT DNA 2: ATCACAACTCACACCCT			binding result (Teb1p (6HN-Teb1) [3]): no binding
HisBox (dsDNA) DNA 1: AGGGTTAGGGTTGTGAT DNA 2: ATCACAACCCTAACCCT	380 ± 50	53 ± 6	
HisBoxFlankPart (dsDNA) DNA 1: AGGGTTAGGGTTACAGC DNA 2: GCTGTAACCCTAACCCT			binding result (Teb1p (6HN-Teb1) [4]): binds
